Consider one molecule from paper doi:10.1101/2021.04.22.440356 (bioRxiv, 2021).

In this assay the target is T1, yeast ubiquitin hydrolase 1 (YUH1) (S. cerevisiae, UniProt P35127 1-236).
T1 sequence (looked up): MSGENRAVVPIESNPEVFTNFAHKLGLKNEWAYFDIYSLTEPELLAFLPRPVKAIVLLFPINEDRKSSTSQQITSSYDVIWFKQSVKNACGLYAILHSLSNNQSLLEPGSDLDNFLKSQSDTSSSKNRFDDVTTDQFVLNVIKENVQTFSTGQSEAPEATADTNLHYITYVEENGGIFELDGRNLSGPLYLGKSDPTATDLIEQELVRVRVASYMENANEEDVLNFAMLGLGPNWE
Nature of the assay: NMR 1H-15N TROSY spectra of the complex.

B1: yeast ubiquitin (natural protein)
chain: not shown
modifications: 2H,15N-labelled
B1: the binding result was “binds”.
